Read-outs that look alike come from different tables or passages of the source.
How the values were obtained:
[1] = molecular target: keyhole limpet hemocyanin; assay: polyreactivity ELISA
[2] = molecular target: keyhole limpet hemocyanin; assay: polyreactivity ELISA; remark: listed apart in the source

- Binding to KLH (A450 normalised to buffer control) [1]: 47.1
- Binding to KLH (A450 normalised to buffer control) [2]: 24.4
Substance: Bococizumab (antibody)

Source: US12247072
